We go through four molecules from patent publication US20090324614A1 (published 2009).

In assay [1] the target is T1, soluble human FcRn (shFcRn) (human, UniProt P55899 24-297; P61769 21-119).
T1 construct: also called soluble hFcRn; sol hFcRn
Briefly: Biacore, pH 7.4.

The target in assay [2] is T1, soluble human FcRn (shFcRn). Description: SPR 8500, IgG, pH 6.
Assay [3] addresses T2, soluble rat FcRn (rat, UniProt P13599 23-298; P07151 21-119, limits assumed).
T2 construct: also called sol rat FcRn
T2 sequence: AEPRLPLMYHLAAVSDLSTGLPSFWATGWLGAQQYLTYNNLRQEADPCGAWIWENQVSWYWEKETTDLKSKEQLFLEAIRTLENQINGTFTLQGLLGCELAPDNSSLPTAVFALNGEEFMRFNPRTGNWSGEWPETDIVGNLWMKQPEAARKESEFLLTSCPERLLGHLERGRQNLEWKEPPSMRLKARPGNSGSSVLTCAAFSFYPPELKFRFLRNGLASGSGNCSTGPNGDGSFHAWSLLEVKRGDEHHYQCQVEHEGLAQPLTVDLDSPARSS
T2 sequence (b2m): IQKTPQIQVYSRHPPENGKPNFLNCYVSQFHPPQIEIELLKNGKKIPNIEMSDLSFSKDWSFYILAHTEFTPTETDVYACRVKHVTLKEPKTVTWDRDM
Description: SPR 8500, IgG, pH 6.

Assay [4] has as its target T1, soluble human FcRn (shFcRn). Description: SPR 8500, IgG, pH 7.5.
In assay [5] the target is T2, soluble rat FcRn. Briefly: SPR 8500, IgG, pH 7.5.
Assay [6] has as its target T1, soluble human FcRn (shFcRn). Description: SPR 8500, hFcRn pH 6 (Table 12B).
Assay [7] has the same target. Briefly: SPR 8500, hFcRn pH 7.4 (Table 12C).
The target of assay [8] is T3, human FcRn/human β2M expressed by cells (293 C11 cells) (human, UniProt P55899 24-365; P61769 21-119).
T3 construct: HEK 293 cells engineered to overexpress FcRn; Whole entries named; also called hFcRn (cells); hFcRn in THP-1 and Caco-2 cells
Description: FACS blocking of IgG-Fc, IgG, pH 6.

Assay [9] concerns the target T4, rat FcRn/rat β2M expressed on cells (rat, UniProt P13599 23-366; P07151 21-119).
T4 construct: Cells from Neil Simister (Brandeis); also called rat FcRn (cells); rat fibroblasts expressing rat FcRn
T4 sequence: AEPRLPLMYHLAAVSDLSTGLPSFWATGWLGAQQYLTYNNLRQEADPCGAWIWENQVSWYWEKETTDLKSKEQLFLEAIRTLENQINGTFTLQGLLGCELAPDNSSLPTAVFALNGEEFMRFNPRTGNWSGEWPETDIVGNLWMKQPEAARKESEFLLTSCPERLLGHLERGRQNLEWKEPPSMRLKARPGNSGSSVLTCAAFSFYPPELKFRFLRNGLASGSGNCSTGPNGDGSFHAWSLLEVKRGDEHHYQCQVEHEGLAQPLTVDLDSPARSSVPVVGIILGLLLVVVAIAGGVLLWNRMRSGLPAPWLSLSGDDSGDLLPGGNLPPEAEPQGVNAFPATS
T4 sequence (b2m): T2 sequence (b2m)
Description: FACS blocking of IgG-Fc, IgG, pH 6.

For assay [10], the target named is T2, soluble rat FcRn. Briefly: SPR 8500, rat FcRn pH 6 (Table 12D).
Assay [11] deals with T2, soluble rat FcRn. Description: SPR 8500, rat FcRn pH 7.4 (Table 12E).
The target of assay [12] is T3, human FcRn/human β2M expressed by cells …. Briefly: FACS (blocking), IgG, hFcRn cells, pH 6.
Assay [13] deals with T1, soluble human FcRn (shFcRn). Briefly: Biacore, hFcRn immobilized, IgG flowed, pH 6. Background: SPR reads the build-up and loss of mass on a sensor chip optically.
Assay [14] shares this target. Description: Biacore, IgG immobilized, hFcRn flowed, pH 6.
Assay [15] shares this target. Briefly: Biacore, hFcRn immobilized, IgG flowed, pH 7.4.
For assay [16] the target is unchanged. Description: Biacore, IgG immobilized, hFcRn flowed, pH 7.4.
Assay [17] shares this target. Description: Biacore, IgG immobilized, hFcRn flowed, pH 7.4. This is another data set of the same source.
For assay [18] the target is unchanged. Briefly: SPR 8500, hFcRn pH 6 (Table 11B).
Assay [19] has the same target. Briefly: SPR 8500, hFcRn pH 7.4 (Table 11C).
Assay [20] addresses T2, soluble rat FcRn. Description: SPR 8500, rat FcRn pH 6 (Table 11D).

Substitutions are numbered along the chain they refer to.

A word on the Kd: it is the concentration at which binding is half-saturated. Low readings indicate higher affinity, high ones lower affinity. In general, koff refers to a measure of how fast the partners let go of each other. Lower therefore signals slow dissociation. As usually defined, the kon is the second-order rate constant of association. Usually IC50 stands for the concentration at which inhibition is half-maximal. Lower therefore signals greater potency in that assay.

T3 sequence (P55899 24-365 limits assumed, chain 1 of 2): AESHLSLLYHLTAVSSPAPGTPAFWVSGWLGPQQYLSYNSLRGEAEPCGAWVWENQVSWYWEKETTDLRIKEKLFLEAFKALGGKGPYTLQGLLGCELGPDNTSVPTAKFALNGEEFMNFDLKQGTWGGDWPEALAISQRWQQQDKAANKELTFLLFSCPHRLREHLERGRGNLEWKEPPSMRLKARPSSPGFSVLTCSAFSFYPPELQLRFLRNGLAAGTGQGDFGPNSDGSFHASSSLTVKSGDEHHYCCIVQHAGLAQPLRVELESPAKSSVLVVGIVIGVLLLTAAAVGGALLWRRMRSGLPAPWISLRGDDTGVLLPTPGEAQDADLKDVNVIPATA
T3 sequence (P61769 21-119 limits assumed, chain 2 of 2): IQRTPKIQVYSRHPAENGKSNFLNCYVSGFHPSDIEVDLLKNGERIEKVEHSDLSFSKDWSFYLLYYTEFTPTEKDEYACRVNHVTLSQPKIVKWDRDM
T1 sequence (P55899 24-297 limits assumed, chain 1 of 2): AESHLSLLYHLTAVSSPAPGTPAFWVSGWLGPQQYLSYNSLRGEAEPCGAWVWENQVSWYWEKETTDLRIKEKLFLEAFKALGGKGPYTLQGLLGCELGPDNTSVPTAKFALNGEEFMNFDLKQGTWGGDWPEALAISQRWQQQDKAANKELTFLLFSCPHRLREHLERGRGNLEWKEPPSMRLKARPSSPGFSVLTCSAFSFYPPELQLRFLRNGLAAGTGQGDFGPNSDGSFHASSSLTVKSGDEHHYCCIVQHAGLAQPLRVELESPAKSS
T1 sequence (P61769 21-119 limits assumed, chain 2 of 2): as the sequence (P61769 21-119 limits assumed, chain 2 of 2) above

B1: 532A-M0090-F11 IgG (antibody)
chain 1: not shown
chain 2: QSVLTQPASVSGSPGQSITISCTGTGSDVGSYNLVSWYQKYPGKAPKLIIYGDSQRPSGLSSRFSGSKSGNSASLTISGLQAEDEADYYCCSYAGSGIYVFGSGTKVTVLSQPKANPTVTLFPPSSEELQANKATLVCLISDFYPGAVTVAWKADGSPVKAGVETTKPSKQSNNKYAASSYLSLTPEQWKSHRSYSCQVTHEGSTVEKTVAPAECS
B1: the “K off Fold improvement over DX2500” value in assay [1] is 7 fold. In addition, the “K off Fold improvement over M90-F11” value in [1] came to 1 fold. The “KD Fold improvement over DX2500” value in assay [1] worked out at 5 fold. For the same molecule, the “KD Fold improvement over M90-F11” value in assay [1] is 1 fold. Further, the Kd amounted to 2.44 nM in [2]; 9.8 nM in the assay with soluble rat FcRn [3]; 10.8 nM in assay [4]; 9.14 nM with soluble rat FcRn [5]; 2.44 nM in [6]; 10.8 nM in assay [7]. In addition, the Kd is 9.8 nM in the assay with soluble rat FcRn [10]; 9.14 nM in the assay with soluble rat FcRn [11]; 0.118 nM in assay [13]; 10.3 nM in assay [14]; 0.772 nM in [15]; 20.5 nM in [16]. The molecule further had a Kd in assay [17] of 18.6 nM. For the same molecule, the koff was determined as 0.00248 s⁻¹ in assay [6]; 0.00173 s⁻¹ in assay [7]; 0.00117 s⁻¹ with soluble rat FcRn [10]; 0.00114 s⁻¹ with soluble rat FcRn [11]; 0.000252 s⁻¹ in [13]; 0.00312 s⁻¹ in assay [14]. The koff is 0.000702 s⁻¹ in [15], 0.00373 s⁻¹ in [16] and 0.00299 s⁻¹ in [17]. Besides, the kon amounted to 1.02e+06 M⁻¹ s⁻¹ in assay [6]; 159000 M⁻¹ s⁻¹ in assay [7]; 119000 M⁻¹ s⁻¹ in the assay with soluble rat FcRn [10]; 125000 M⁻¹ s⁻¹ with soluble rat FcRn [11]; 2.13e+06 M⁻¹ s⁻¹ in [13]; 303000 M⁻¹ s⁻¹ in assay [14]. In addition, the on-rate (kon) in [15] is 909000 M⁻¹ s⁻¹; in assay [16], 181000 M⁻¹ s⁻¹; in assay [17] it was 161000 M⁻¹ s⁻¹. The IC50 in assay [8] was 2.6 nM; in assay [9], 4.9 nM; in [12], 0.43 nM.

B2: DX-2500 (germlined LC & allotype HC changes) (antibody)
chain 1: not shown
chain 2: B1 chain 2 with V3A, K40Q, Y41H, I49M, L60V, S62N, S72T, S103T, S111G, A213T
In the case of B2, in assay [1], the “K off Fold improvement over DX2500” value stood at 1 fold, the “K off Fold improvement over M90-F11” value stood at 0.15 fold, the “KD Fold improvement over DX2500” value was determined as 1 fold and the “KD Fold improvement over M90-F11” value is 0.21 fold. Inhibition in assay [12] was half-maximal at 0.65 nM (IC50). For the same molecule, in assay [13], binding was characterised by a dissociation constant (Kd) of 0.16 nM, the koff is 0.000336 s⁻¹ and the kon came to 2.11e+06 M⁻¹ s⁻¹. Moreover, in assay [14], the Kd is 27.6 nM, the koff turned out to be 0.0177 s⁻¹ and the kon came to 642000 M⁻¹ s⁻¹. Further, in [15], the Kd amounted to 0.268 nM, the koff is 0.000338 s⁻¹ and the kon was 1.26e+06 M⁻¹ s⁻¹. For the same molecule, in [17], the Kd came to 87.9 nM, the koff is 0.0197 s⁻¹ and the kon worked out at 224000 M⁻¹ s⁻¹.

B3: 532A-M0090-F11 (germlined LC changes) IgG (antibody)
chain 1: not shown
chain 2: B1 chain 2 with V3A, K40Q, Y41H, I49M, L60V, S62N, S72T, S103T, S111G, A213T
In the case of B3, the IC50 in assay [12] was 0.38 nM. Moreover, the Kd in assay [13] was determined as 0.172 nM; in [14], 29.9 nM; in [15], 0.779 nM; in [16], 35.2 nM. The off-rate (koff) amounted to 0.000764 s⁻¹ in [13], 0.0172 s⁻¹ in assay [14], 0.000776 s⁻¹ in assay [15] and 0.0152 s⁻¹ in assay [16]. The kon in assay [13] turned out to be 4.45e+06 M⁻¹ s⁻¹; in [14], 574000 M⁻¹ s⁻¹; in assay [15], 996000 M⁻¹ s⁻¹; in assay [16], 433000 M⁻¹ s⁻¹.

B4: 3B3 mouse anti-human FcRn IgG (antibody)
chain 1: VKLQESGPELVKPGASVKISCKASGYAFSRSWMNWVKQRPGQGLEWIGRIHPGDGDTNYNGKFKGKATLTVAKSSSTAYMQLSSLTSVDSAVYFCANEGSPYFDYWGQGTTLTVSS
chain 2: DIQLTQSPTTVAASPGEKITITCSASSSISSNYLHWYQQKPGFSPKLLIYRTSNLASGVPARFSGSGSGTSYSLTIGTMEAEDVATYYCQQGSNIPLTFGAGTKLELKRADAAPTVSIFPPSSEQLTSGGASVVCFLNNFYPKDINVKWKIDGSERQNGVLNSWTDQDSKDSTYSMSSTLTLTKDEYERHNSYTCEATHKTSTSPIVKSFNKNE
On to B4, for which the Kd turned out to be 0.34 nM in assay [18]; 0.409 nM in assay [6]; 0.593 nM in [19]; 0.675 nM in assay [7]; 1.5 nM with soluble rat FcRn [20]. In addition, the koff turned out to be 0.00131 s⁻¹ in assay [18]; 0.00094 s⁻¹ in assay [6]; 0.00176 s⁻¹ in assay [19]; 0.0023 s⁻¹ in [7]; 0.00104 s⁻¹ with soluble rat FcRn [20]. Besides, the kon in [18] was 3.82e+06 M⁻¹ s⁻¹; in assay [6] it was 2.3e+06 M⁻¹ s⁻¹; in assay [19], 2.97e+06 M⁻¹ s⁻¹; in [7], 3.41e+06 M⁻¹ s⁻¹; with soluble rat FcRn [20] it was 683000 M⁻¹ s⁻¹. The molecule further displayed a 50% inhibitory concentration (IC50) in assay [8] of 9.7 nM.
